Reference: US20250339569A1 (3B PHARMACEUTICALS, published 2025)
Starred links: 1 amine or outer side, 2 acyl side, 3 side chain; linkers in the order of their positions; H or OH if unused. Positions of bridges follow the written chain, without caps; N, C: chain ends. Non-standard residues stand in square brackets, D forms with d. Primed or numbered codes have the meaning given here. *: point of attachment. Eem = S-benzyl-cysteine-sulfone, O=C([C@H](CS(=O)(=O)Cc1ccccc1)N[*:1])[*:2]; APAc″ = 2-(4-(amino)piperidin-1-yl)acetic acid, NC1CCN(CC(=O)*)CC1; DOTA = O=C(O)CN1CCN(CC(=O)O)CCN(CC(=O)*)CCN(CC(=O)O)CC1; Phe(3,4-Cl2) = N[C@@H](Cc1ccc(Cl)c(Cl)c1)C(=O)O; Phe(3-CF3) = N[C@@H](Cc1cccc(C(F)(F)F)c1)C(=O)O; Bip = N[C@@H](Cc1ccc(-c2ccccc2)cc1)C(=O)O; Dip = N[C@H](C(=O)O)C(c1ccccc1)c1ccccc1; Phe(4-I) = N[C@@H](Cc1ccc(I)cc1)C(=O)O; dmo = (R)-dimethylornithine (D form); mXylylene = c1cc(C[*:1])cc(C[*:2])c1; Orn(Me2) = CN(C)CCC[C@H](N)C(=O)O; NMeD = CN[C@@H](CC(=O)O)C(=O)O; Pen = CC(C)(S)[C@H](N)C(=O)O; NHMe2Nph = not defined here; hSer = N[C@@H](CCO)C(=O)O; 2Quyl = not defined here; AGLU′ = not defined here; Orn = NCCC[C@H](N)C(=O)O; APAc = not defined here; Dap = NC[C@H](N)C(=O)O; Bn = c1ccc(C*)cc1

Target: human carbonic anhydrase 9 (CAIX) (human, UniProt Q16790 38-459)
Experiment: FACS competition on HT-29 cells, competitor tracer 3BP-2776; category A = pIC50 >8.0
Protocol: CAIX-expressing human HT-29 colorectal cancer cells (DSMZ, RRID: CVCL_0320) were cultured in McCoys's 5A modified medium (Biochrom, #F1015) including 10% fetal calf serum (FCS), 2 mM L-glutamine, 100 U/ml penicillin and 100 μg/mL streptomycin. Cells were detached with Accutase (Biolegend, #423201) and washed in FACS buffer (PBS including 1% FCS). Cells were diluted in FACS buffer to a final concentration of 500.000 cells per ml. 200 μL of the cell suspension were transferred to a u-shaped non-binding 96-well plate (Greiner) and cells were washed in ice-cold FACS buffer.
When biotinylated compounds were used an additional incubation step with 1 μg/mL APC-Streptavidin (Miltenyi; #130-106-791) in 50 μL FACS buffer for 30 minutes on ice was performed.
Cells were washed twice with ice-cold FACS buffer and analyzed in an Attune NxT flow cytometer (Thermo Fisher). Median fluorescence intensities (MFI) of the APC/Cy5-channel were calculated by Attune NxT software.

pIC50	Binder
> 8 pic50	{DOTA-APAc}-VYCE[dP]D[Phe(3,4-Cl2)]LTWSC-NH2 (linker 3-12 via mXylylene; not fully specified; reading uncertain) [3BP-4133]
> 8 pic50	{DOTA-APAc″}-VYCE[dP]E(NHMe2Nph)WLTWSC-NH2 (linker 3-12 via mXylylene; reading uncertain) [3BP-4215]
> 8 pic50	{DOTA-APAc}-VYCE[dP]C(2Quyl)WLTWSC-NH2 (linker 3-12 via mXylylene; not fully specified; reading uncertain) [3BP-4129]
> 8 pic50	{DOTA-APAc}-VYCE[dP]DYLTWSC-NH2 (linker 3-12 via mXylylene; not fully specified; reading uncertain) [3BP-4136]
> 8 pic50	{DOTA-APAc}-VYCE[dP]DC(Bn)LTWSC-NH2 (linker 3-12 via mXylylene; not fully specified; reading uncertain) [3BP-4130]
> 8 pic50	{DOTA-APAc″}-V[Dap]CE[dP]DWLTWEC-NH2 (lactam 2-11; linker 3-12 via mXylylene) [3BP-4177]
> 8 pic50	{DOTA-APAc″}-V[Dap]CE[dP]DWLTWDC-NH2 (lactam 2-11; linker 3-12 via mXylylene) [3BP-4176]
> 8 pic50	{DOTA-APAc}-VYCE[dP]D[Dip]LTWSC-NH2 (linker 3-12 via mXylylene; not fully specified; reading uncertain) [3BP-4132]
> 8 pic50	{DOTA-APAc}-VYCE[dP]D[Bip]LTWSC-NH2 (linker 3-12 via mXylylene; not fully specified; reading uncertain) [3BP-4131]
> 8 pic50	{DOTA-APAc}-VYCE[dP]D[Phe(4-I)]LTWSC-NH2 (linker 3-12 via mXylylene; not fully specified; reading uncertain) [3BP-4134]
> 8 pic50	{DOTA-APAc}-VYCE[dP]D[Phe(3-CF3)]LTWSC-NH2 (linker 3-12 via mXylylene; not fully specified; reading uncertain) [3BP-4135]
> 8 pic50	{DOTA-APAc″}-VECE[dP]DWLTW[Dap]C-NH2 (lactam 2-11; linker 3-12 via mXylylene) [3BP-4175]
> 8 pic50	{DOTA}-SDCE[dP]DWLTW[Dap]C-NH2 (lactam 11-2; linker 3-12 via mXylylene; SMILES CC(C)C[C@@H]1NC(=O)[C@H](Cc2c[nH]c3ccccc23)NC(=O)[C@H](CC(=O)O)NC(=O)[C@H]2CCCN2C(=O)[C@H](CCC(=O)O)NC(=O)[C@@H]2CSCc3cccc(c3)CSC[C@@H](C(N)=O)NC(=O)[C@H](CNC(=O)C[C@H](NC(=O)[C@H](CO)NC(=O)CN3CCN(CC(=O)O)CCN(CC(=O)O)CCN(CC(=O)O)CC3)C(=O)N2)NC(=O)[C@H](Cc2c[nH]c3ccccc23)NC(=O)[C@H]([C@@H](C)O)NC1=O) [3BP-4257]

Further lines, the binder ahead of its results:

Binder	pIC50
Ac-VYCE[dP]KWLEWS[Pen]-NH2 (linker 3-12 via mXylylene; lactam 6-9; SMILES CC(=O)N[C@H](C(=O)N[C@@H](Cc1ccc(O)cc1)C(=O)N[C@H]1CSCc2cccc(c2)CSC(C)(C)[C@@H](C(N)=O)NC(=O)[C@H](CO)NC(=O)[C@H](Cc2c[nH]c3ccccc23)NC(=O)[C@@H]2CCC(=O)NCCCC[C@H](NC(=O)[C@H]3CCCN3C(=O)[C@H](CCC(=O)O)NC1=O)C(=O)N[C@@H](Cc1c[nH]c3ccccc13)C(=O)N[C@@H](CC(C)C)C(=O)N2)C(C)C) [3BP-3963]	> 8 pic50
{DOTA-APAc}-VYCE[dP]Y(Bn)WLTWSC-NH2 (linker 3-12 via mXylylene; not fully specified; reading uncertain) [3BP-4127]	> 8 pic50
{DOTA-APAc}-VYCE[dP]C(Bn)WLTWSC-NH2 (linker 3-12 via mXylylene; not fully specified; reading uncertain) [3BP-4128]	> 8 pic50
{DOTA-APAc}-V[Orn(Me2)]CE[dP]DWLTWSC-NH2 (linker 3-12 via mXylylene; reading uncertain) [3BP-4095]	> 8 pic50
{DOTA-APAc}-VYCE[dP][NMeD]WLTWSC-NH2 (linker 3-12 via mXylylene; reading uncertain) [3BP-4107]	> 8 pic50
{DOTA-APAc}-VYCE[dP]DWL[Orn(Me2)]WSC-NH2 (linker 3-12 via mXylylene; reading uncertain) [3BP-4099]	> 8 pic50
{DOTA-APAc}-VYC[Orn(Me2)][dP]DWLTWSC-NH2 (linker 3-12 via mXylylene; reading uncertain) [3BP-4096]	> 8 pic50
{DOTA}-YCE[dP]KWLEWSC-NH2 (linker 2-11 via mXylylene; lactam 5-8; SMILES CC(C)C[C@@H]1NC(=O)[C@H](Cc2c[nH]c3ccccc23)NC(=O)[C@@H]2CCCCNC(=O)CC[C@H](NC1=O)C(=O)N[C@@H](Cc1c[nH]c3ccccc13)C(=O)N[C@@H](CO)C(=O)N[C@H](C(N)=O)CSCc1cccc(c1)CSC[C@H](NC(=O)[C@H](Cc1ccc(O)cc1)NC(=O)CN1CCN(CC(=O)O)CCN(CC(=O)O)CCN(CC(=O)O)CC1)C(=O)N[C@@H](CCC(=O)O)C(=O)N1CCC[C@@H]1C(=O)N2) [3BP-3934]	> 8 pic50
{DOTA-APAc}-VYCE(AGLU′)[dP]DWLTWSC-NH2 (linker 3-12 via mXylylene; reading uncertain) [3BP-4113]	> 8 pic50
{DOTA-APAc}-VYC[hSer][dP]DWLTWSC-NH2 (linker 3-12 via mXylylene; reading uncertain) [3BP-4101]	> 8 pic50
Ac-VYCE[dP][Orn]WLDWSC-NH2 (linker 3-12 via mXylylene; lactam 6-9; SMILES CC(=O)N[C@H](C(=O)N[C@@H](Cc1ccc(O)cc1)C(=O)N[C@H]1CSCc2cccc(c2)CSC[C@@H](C(N)=O)NC(=O)[C@H](CO)NC(=O)[C@H](Cc2c[nH]c3ccccc23)NC(=O)[C@@H]2CC(=O)NCCC[C@H](NC(=O)[C@H]3CCCN3C(=O)[C@H](CCC(=O)O)NC1=O)C(=O)N[C@@H](Cc1c[nH]c3ccccc13)C(=O)N[C@@H](CC(C)C)C(=O)N2)C(C)C) [3BP-4005]	> 8 pic50
{DOTA-APAc}-VYCE[dP][hSer]WLTWSC-NH2 (linker 3-12 via mXylylene; reading uncertain) [3BP-4102]	> 8 pic50
{DOTA-APAc}-VYCE[dP][Eem]WLTWSC-NH2 (linker 3-12 via mXylylene; not fully specified; reading uncertain) [3BP-4123]	> 8 pic50
{DOTA}-YCE[dP]DWLTWSC-NH2 (linker 2-11 via mXylylene; also: ['indium complexed by DOTA']) [3BP-3906]	> 8 pic50
{DOTA-APAc}-VYCE[dP]DWLTWSC-NH2 (linker 3-12 via mXylylene; reading uncertain; also: ['indium complexed by DOTA']) [3BP-3905]	> 8 pic50
{DOTA-APAc″}-VDCE[dP]DWLTW[Dap]C-NH2 (lactam 2-11; linker 3-12 via mXylylene) [3BP-4174]	> 8 pic50
{DOTA-APAc}-VYCE[dP]DWLTW[Orn(Me2)]C-NH2 (linker 3-12 via mXylylene; reading uncertain) [3BP-4100]	> 8 pic50
{DOTA-APAc}-VYCE[dmo]DWLTWSC-NH2 (linker 3-12 via mXylylene; reading uncertain) [3BP-4097]	> 8 pic50
